# ± gives the uncertainty stated by the source.
# Assay: self-splicing fitness, log relative to wild type (ln ratio); higher = more splicing; Tetrahymena group I intron in knt gene, E. coli kanamycin selection, DiMSum; sequences stand for … in CUCUCU…GGAGGGAAAAGUUAUCAGGCAUGCACCUGGUAGCUAGUCUUUAAACCAAUAGAUUGCAUCGGUUUAAAAGGCAAGACCGUCAAAUUGCGGGAAAGGGGUCAACAGCCGUUCAGUACCAAGUCUCAGGGGAAACUUUGAGAUGGCCUUGCAAAGGGUAUGGUAAUAAGCUGACGGACAUGGUCCUAACCACGCAGCCAAGUCCUAAGUCAACAGAUCUUCUGUUGAUAUGGAUGCAGUUCACAGACUAAAUGUCGGUCGGGGAAGAUGUAUUCUUCUCAUAAGAUAUAGUCGGACCUCUCCUUAAUGGGAGCUAGCGGAUGAAGUGAUGCAACACUGGAGCCGCUGGGAACUAAUUUGUAUGCGAAAGUAUAUUGAUUAGUUUUGGAGUACUCGUGGUCG
# How it was run: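 Pooled colonies went to amplicon sequencing on an Illumina HiSeq 2500 after six replicate transformations. The plates were LB agar with 100 μg/mL carbenicillin, 50 μM IPTG and 0.2% rhamnose, with or without 25 μg/mL kanamycin, incubated overnight at 37°C or 30°C. The E. coli BL21(DE3) library had all eight P1ex-region intron nucleotides randomised, the intron placed in the knt kanamycin-resistance gene on pET-22b(+). DiMSum fitness is the error-weighted combination of replicate fold changes, kanamycin against none, normalised to wild type.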
Sequence,self-splicing fitness (ln) (30 °C),self-splicing fitness (ln) (37 °C)
AGCAAGCAAUAUUACGCCAA,-2.89 ± 0.2,-1.97 ± 0.14
AGCAAGCAAUAUUACGCCCA,-0.157 ± 0.17,-0.704 ± 0.22
AGCAAGCAAUAUUACGCGUG,-3.87 ± 0.19,-3.49 ± 0.27
AGCAAGCAAUAUUACGCUCA,-2.66 ± 0.18,-1.69 ± 0.15
AGCAAGCAAUAUUACGCUUC,,-3.29 ± 0.42
AGCAAGCAAUAUUACGGCCG,-0.219 ± 0.071,-0.111 ± 0.094
AGCAAGCAAUAUUACGGCUU,-3.17 ± 0.18,-0.891 ± 0.12
AGCAAGCAAUAUUACGGGCC,-3.26 ± 0.23,-2.32 ± 0.22
AGCAAGCAAUAUUACGGGCG,-0.538 ± 0.061,-0.377 ± 0.074
AGCAAGCAAUAUUACGGGGU,-2.45 ± 0.15,-2 ± 0.12
AGCAAGCAAUAUUACGGGUU,-1.67 ± 0.1,-2.17 ± 0.14
AGCAAGCAAUAUUACGGUGC,-1.6 ± 0.11,-3.4 ± 0.22
AGCAAGCAAUAUUACGUCUU,-1.38 ± 0.068,-0.234 ± 0.074
AGCAAGCAAUAUUACGUGAC,-2.49 ± 0.2,-1.85 ± 0.27
AGCAAGCAAUAUUACGUUGU,-3.33 ± 0.12,-2.87 ± 0.14
AGCCAGCAAUAUUACGAAUA,-3.25 ± 0.27,-2.94 ± 0.3
AGCCAGCAAUAUUACGACAA,-3.47 ± 0.23,-3.18 ± 0.2
AGCCAGCAAUAUUACGAGCA,-0.932 ± 0.11,0.49 ± 0.14
AGCCAGCAAUAUUACGAUCG,-3.74 ± 0.26,-1.69 ± 0.15
AGCCAGCAAUAUUACGAUGC,-3.79 ± 0.47,-0.986 ± 0.2
AGCCAGCAAUAUUACGAUUA,-2.22 ± 0.27,-2.48 ± 0.28
AGCCAGCAAUAUUACGCAUC,-3.75 ± 0.2,-3.03 ± 0.17
AGCCAGCAAUAUUACGCGUG,-1.91 ± 0.089,-1.35 ± 0.092
AGCCAGCAAUAUUACGCUAG,-2.97 ± 0.25,-2.81 ± 0.25
AGCCAGCAAUAUUACGGAUU,-2.85 ± 0.1,-0.534 ± 0.093

Sequence,self-splicing fitness (ln) (30 °C),self-splicing fitness (ln) (37 °C)
AGCCAGCAAUAUUACGGCGU,-1.61 ± 0.09,-1.44 ± 0.12
AGCCAGCAAUAUUACGGCUC,-2.52 ± 0.18,-3.14 ± 0.31
AGCCAGCAAUAUUACGGGAC,-2.67 ± 0.22,-2.7 ± 0.27
AGCCAGCAAUAUUACGGGCC,-2.77 ± 0.2,-3.49 ± 0.46
AGCCAGCAAUAUUACGUAUA,-3.4 ± 0.14,-2.69 ± 0.17
AGCCAGCAAUAUUACGUAUU,-3.72 ± 0.13,-2.05 ± 0.12
AGCCAGCAAUAUUACGUCCA,-2.69 ± 0.18,-1.99 ± 0.2
AGCCAGCAAUAUUACGUGAA,-3.14 ± 0.091,-1.81 ± 0.1
AGCCAGCAAUAUUACGUGUC,-3.17 ± 0.12,-0.932 ± 0.083
AGCCAGCAAUAUUACGUUGU,-3.58 ± 0.21,-2.01 ± 0.15
AGCGAGCAAUAUUACGACAG,,-2.08 ± 0.4
AGCGAGCAAUAUUACGACCU,-0.933 ± 0.15,-0.654 ± 0.15
AGCGAGCAAUAUUACGAUCA,-1.94 ± 0.26,-2.08 ± 0.37
AGCGAGCAAUAUUACGAUCG,-1.79 ± 0.25,-1.63 ± 0.3
AGCGAGCAAUAUUACGAUUU,-1.4 ± 0.1,-0.548 ± 0.14
AGCGAGCAAUAUUACGCCCG,,-0.109 ± 0.42
AGCGAGCAAUAUUACGCCGG,-3.03 ± 0.27,-2.44 ± 0.5
AGCGAGCAAUAUUACGGAGC,,-2.92 ± 0.4
AGCGAGCAAUAUUACGGAGG,-3.59 ± 0.47,-1.53 ± 0.33
AGCGAGCAAUAUUACGGAUA,-2.18 ± 0.39,-2.17 ± 0.34
AGCGAGCAAUAUUACGGCCA,-1.8 ± 0.099,-1.27 ± 0.078
AGCGAGCAAUAUUACGGCCC,-1.03 ± 0.28,-0.383 ± 0.24
AGCGAGCAAUAUUACGGGAC,,-2.99 ± 0.38
AGCGAGCAAUAUUACGGUUA,-1.22 ± 0.12,-1.9 ± 0.11
